From patent US20140178405A1 come the findings set out here.

What all share (assay): cell-based or functional assay
Test [1] deals with native VP6 of bovine rotavirus C486 (SbI; P[1]G6), in the virus (bovine rotavirus strain C486).
Test [2] deals with native VP6 of human rotavirus Wa (SbII; P[8]G1), in the virus (human rotavirus strain Wa).
The target of test [3] is native VP6 of bovine rotavirus IND (SbI; P[5]G6), in the virus (bovine rotavirus strain IND).
Test [4] has as its target native VP6 of equine rotavirus H2 (Sb no I, no II; P[12]G3), in the virus (equine rotavirus strain H2).

Chain of native VP6 of human rotavirus Wa (SbII; P[8]G1), in the virus (human rotavirus strain Wa) (P03530 whole entry): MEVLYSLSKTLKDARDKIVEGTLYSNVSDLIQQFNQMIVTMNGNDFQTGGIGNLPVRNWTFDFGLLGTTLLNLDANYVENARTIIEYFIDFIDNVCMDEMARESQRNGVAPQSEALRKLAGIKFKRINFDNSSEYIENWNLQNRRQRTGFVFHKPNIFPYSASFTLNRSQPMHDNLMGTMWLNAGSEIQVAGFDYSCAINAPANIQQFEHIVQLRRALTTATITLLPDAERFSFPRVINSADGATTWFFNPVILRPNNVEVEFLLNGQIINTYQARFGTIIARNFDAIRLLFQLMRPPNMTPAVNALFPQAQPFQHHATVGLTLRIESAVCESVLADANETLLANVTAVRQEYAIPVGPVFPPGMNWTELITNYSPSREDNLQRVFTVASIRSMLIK
Chain of native VP6 of equine rotavirus H2 (Sb no I, no II; P[12]G3), in the virus (equine rotavirus strain H2) (P16488 whole entry): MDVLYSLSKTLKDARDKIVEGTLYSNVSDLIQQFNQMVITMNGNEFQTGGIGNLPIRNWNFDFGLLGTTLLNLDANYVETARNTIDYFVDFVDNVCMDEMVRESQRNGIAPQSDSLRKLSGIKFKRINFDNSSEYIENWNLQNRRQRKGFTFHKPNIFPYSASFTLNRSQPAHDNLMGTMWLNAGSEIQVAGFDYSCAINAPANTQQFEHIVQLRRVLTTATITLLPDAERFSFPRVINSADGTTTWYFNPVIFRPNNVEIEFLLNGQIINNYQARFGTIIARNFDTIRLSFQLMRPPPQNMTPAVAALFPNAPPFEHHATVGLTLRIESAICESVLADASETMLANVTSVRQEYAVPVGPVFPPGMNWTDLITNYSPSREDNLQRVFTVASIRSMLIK

Take “non-related VHH, directed against a cellular protein”: the VN antibody titre (inverse of the highest VHH dilution that reduces >80% of the FFU per 100 FFU), VHH at 0.4 mg/ml (titre (reciprocal dilution)) in test [1], in test [2], in test [3] and in test [4] was < 8 in each case.

B1: bivalent VHH biv2KA4 (bispecific antibody)
chain: MADVQLQASGGGLVQAGDSLRLSCVQSGPGRYGVGWFRQAPGKEREFVAAVSGSGGSKYYGDSVQGRFTISKDDAKNTVYLQMNNLKPEDTAVYYCAVRRTYSGSNLWHRSDEYDSWGPGTQVTVSSSGPSTPPRPSPSTPPSDVQLQASGGGLVQAGDSLRLSCVQSGPGRYGVGWFRQAPGKEREFVAAVSGSGGSKYYGDSVQGRFTISKDDAKNTVYLQMNNLKPEDTAVYYCAVRRTYSGSNLWHRSDEYDSWGPGTQVTVSSGRHHHHHH
With B1, the VN antibody titre (inverse of the highest VHH dilution that reduces >80% of the FFU per 100 FFU), VHH at 0.5 mg/ml (titre (reciprocal dilution)) in test [1] is < 8; in test [2], 32; in test [3] it was < 8; in test [4], < 8.

B2: VHH 2KA4 anti VP6 (VHH)
VHH: DVQLQASGGGLVQAGDSLRLSCVQSGPGRYGVGWFRQAPGKEREFVAAVSGSGGSKYYGDSVQGRFTISKDDAKNTVYLQMNNLKPEDTAVYYCAVRRTYSGSNLWHRSDEYDSWGPGTQVTVSS
With B2, the VN antibody titre (inverse of the highest VHH dilution that reduces >80% of the FFU per 100 FFU), VHH at 2 mg/ml (titre (reciprocal dilution)) in test [1], in test [2], in test [3] and in test [4] was < 8 in each case.

B3: VHH 3B2 anti VP6 (VHH)
VHH: DVQLQASGGGLAQAGDSLTLSCAASGRTFSGYVVGWFRQAPGAEREFVGAIRWSEDSTWYGDSMKGRILISRNNIKNTVNLQMFNLKPEDTAVYVCAAGAGDIVTTETSYNYWGRGTQVTVSS
B3: the VN antibody titre (inverse of the highest VHH dilution that reduces >80% of the FFU per 100 FFU), VHH at 2 mg/ml (titre (reciprocal dilution)) in test [1] was 1024; in test [2], 8192; in test [3], 1024; in test [4], 512.

B4: VHH 2KD1 anti VP6 (VHH)
VHH: DVQLQASGGGFVQPGDSLSLSCAASGGTFSSYSIGWFRQGPGKEREFVATISSSDSPWYGEPAKGRFTVARVNAKNTAYLHLNRLKPEDTATYYCAAGSVQHMANENEYVYWGQGTQVTVSS
Take B4: the VN antibody titre (inverse of the highest VHH dilution that reduces >80% of the FFU per 100 FFU), VHH at 2 mg/ml (titre (reciprocal dilution)) in test [1] worked out at 2048; in test [2] it was 8192; in test [3] it was 2048; in test [4], 512.

B5: VHH 3A6 anti VP6 (VHH)
VHH: EVQLQASGGGFVQPGGSLSLSCAVSGRSFGDDVMGWFRQAPGKEREFVSAIRFRSNSPFYGDPGKGRFTIARDSAKDTVYLHMYRLRPDDTAVYYCAVGDGALVNRASDYTYWGQGTQVTVSS
With B5, the VN antibody titre (inverse of the highest VHH dilution that reduces >80% of the FFU per 100 FFU), VHH at 2 mg/ml (titre (reciprocal dilution)) in test [1] stood at 1024; in test [2], 2048; in test [3] it was 1024; in test [4], 128.
